Results reported in the supplement of paper PMC9732359.
± gives the uncertainty stated by the source.

assay: protein stability index of a GFP-peptide fusion (yeast GPS) (PSI 1-4); higher = more stable; sorted into four equal gates, so the index is relative within each strain; details: pdr5∆
How it was run: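 Yeast carrying a pooled library were grown to mid-log phase in leucine-free medium. Each library plasmid expresses Cherry and has a tiled 17-residue yeast protein peptide fused downstream of GFP. Cells were sorted into four equal gates by GFP/Cherry ratio, and plasmids from each gate were PCR-amplified, Illumina-sequenced and assigned to strains by barcode. Summing, across gates, the read frequency times the gate number gave each peptide's protein stability index.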

| Sequence | protein stability index |
| --- | --- |
| DMIKCFLPKLNSVRNSL [NUT1] | 2.48 ± 0.089 |
| DMLLHKYYIVSSSKSMI [SRB8] | 1.47 ± 0.062 |
| DMSKILVDQGFNYSGKD [RET1] | 3.31 ± 0.065 |
| DMVKLDINPPLVFILAV [RRP42] | 2.3 ± 0.043 |
| DNEDSDNLFGETESSVS [SWI3] | 3.07 ± 0.081 |
| DNETKAMLINLILRDFL [RPN3] | 2.66 ± 0.087 |
| DNLGQTKIIMATNRPDT [RPT4] | 2.56 ± 0.1 |
| DNNTASNMLGSNEDVMM [RPB3] | 2.43 ± 0.17 |
| DNVVRFLNEARDKAGRL [RPO21] | 1.61 ± 0.056 |
| DPFSIYGFSNKEYISRL [SNF5] | 2.39 ± 0.15 |
| DPLLAGLGETSGDNHTQ [RPT4] | 3.43 ± 0.21 |
| DPLRIAMKELAEKKIPL [RPO26] | 3.26 ± 0.18 |
| DPNNPVDFDGLDIKRVG [SNF12] | 3.32 ± 0.086 |
| DPSRELNVIIDQLAVSP [YCS4] | 3.04 ± 0.062 |
| DPTKVTEFEFYLLEELE [SSN8] | 3.28 ± 0.058 |
| DPVSGAILVPMTVNDQP [YJR042W/NUP85] | 2.03 ± 0.16 |
| DQAELPNNASSHISASA [SNF2] | 2.35 ± 0.068 |
| DQAIVTETKRLVVIRFG [DIB1] | 2.23 ± 0.062 |
| DQGNGWLYVYETPNQDA [RPN6] | 2.01 ± 0.051 |
| DQKETKKGESEKDASGK [YOR098C/NUP1] | 3.37 ± 0.15 |
| DQLLTDLIETSFTCFAQ [NUT1] | 1.9 ± 0.076 |
| DQYIQKQVQISHHLKAD [YGL172W/NUP49] | 2.71 ± 0.092 |
| DRAIRKTCQWYSEHLKP [DIS3] | 3.1 ± 0.096 |
| DRETALDFIGRRGTALG [RPB2] | 2.07 ± 0.065 |
| DRKDQDDRDHFGKKRLD [RPB2] | 3.04 ± 0.12 |

| Sequence | protein stability index |
| --- | --- |
| DRKHVAALRTVKSLVDN [RPL9B] | 2.83 ± 0.22 |
| DRKKDKNVKHSGNIQLD [RPL12A] | 3.46 ± 0.17 |
| DRKNRAPPQRPRFNRDN [RPS26B] | 1.4 ± 0.15 |
| DRQCMIMDELLSSIAER [DIB1] | 2.78 ± 0.053 |
| DRSKLKKGVRVTLDITT [RPT4] | 2.87 ± 0.2 |
| DRSKPVALTSFLGYKAG [RPL3] | 2.89 ± 0.063 |
| DRVIFRVPIRSEYKVAF [PRP8] | 2.71 ± 0.061 |
| DRVKVIECFKPGDIVRA [CSL4] | 2.39 ± 0.14 |
| DSAAIIAATGLNQINGL [GRR1] | 2.83 ± 0.089 |
| DSADVPAFSNSNGFNNV [YMR153W/NUP53] | 3.2 ± 0.067 |
| DSDELGGESMEGPKKCI [SNM1] | 3.51 ± 0.086 |
| DSDKGSKLNELKKELKL [SMC2] | 3.02 ± 0.23 |
| DSENFSFEKLYEGMKLG [YMR129W/POM152] | 3.48 ± 0.15 |
| DSFIFDGTAKEVGDEAD [MED4] | 3.31 ± 0.057 |
| DSLISGVKQKITIQLTR [BRR2] | 1.74 ± 0.064 |
| DSNESDDDVTPSTKVAS [YLR335W/NUP2] | 3.13 ± 0.15 |
| DSSMTTVQENELLKSSL [AAR2] | 3.32 ± 0.1 |
| DSSVEDSTDNENSGKEM [LIN1] | 3.24 ± 0.069 |
| DSTPEEVSCKLLETITY [YML103C/NUP188] | 2.82 ± 0.086 |
| DSTVNKSITLKGRNNES [YDL088C/ASM4] | 3.38 ± 0.084 |
| DTFRAGAFDQLKQNAIR [SRP54] | 2.99 ± 0.056 |
| DTFRWVGKKSAPEKDIW [RPO31] | 2.88 ± 0.11 |
| DTISAITHQLNNKFANK [RPC25] | 2.42 ± 0.16 |
| DTKLRLEKSKNECQRLQ [YIL149C/MLP2] | 2.85 ± 0.059 |
| DTLDGDLMDDMSDISDL [RPN3] | 2.69 ± 0.076 |

| Sequence | protein stability index |
| --- | --- |
| DTPTSGKHNLTIWCVCD [BRR2] | 3.22 ± 0.1 |
| DTQFTKLLDDNPTEFDW [SRB8] | 3.04 ± 0.071 |
| DTSLCINGEPSIHVNRV [RRI1] | 3.04 ± 0.073 |
| DVDMEDRNLTEFDSTDT [RRI1] | 3.09 ± 0.12 |
| DVEDDDKETQLKKRAVS [POP7] | 2.94 ± 0.096 |
| DVLKVNTLVRPNGTKKA [RPL25] | 2.91 ± 0.08 |
| DVTPISMFGSDQKTGRA [RPN4] | 3.11 ± 0.094 |
| DYNKKQDRIQDVKLVLA [MED1] | 2.83 ± 0.074 |
| DYTLQDIICEDSTLILE [RPB2] | 2.64 ± 0.078 |
| EAEMAYVKAVSDKAQLN [SMC4] | 2.33 ± 0.052 |
| EAIDGNGEIKGENIDAD [SNF2] | 3.4 ± 0.071 |
| EAKKFEPTYRLVRYGLA [RPS24A] | 3.11 ± 0.095 |
| EANFDLINIDTSIANAF [RPC40] | 3.27 ± 0.057 |
| EASKKSAVKPRPLKLER [FAS1] | 3.16 ± 0.13 |
| ECENEIKTKQMSLKKCQ [SMC2] | 3.28 ± 0.1 |
| ECLQAYIFFGPIYYQKL [RET1] | 2.65 ± 0.071 |
| ECPLDPGGYFIVNGTEK [RET1] | 3.34 ± 0.095 |
| ECPVGEFLINEGTPINN [RPN14] | 2.39 ± 0.069 |
| EDDDIRSRMLPTITLDD [SNF5] | 3.07 ± 0.18 |
| EDEDEDDETPSCEVEEI [SNU114] | 2.22 ± 0.05 |
| EDEGEELTDEYLAENPD [PRP8] | 3.39 ± 0.13 |
| EDETVKVAQLRQTGPAK [NSL1] | 2.83 ± 0.17 |
| EDFAPLLAEEEELILPN [PRP8] | 3.38 ± 0.15 |
| EDFMDIPKPRTAGKTSV [SNF2] | 3.24 ± 0.085 |
| EDGRTLSDYNIQKESTL [RPS31] | 3.02 ± 0.066 |

| Sequence | protein stability index |
| --- | --- |
| EDILQGIFNLLNTLFNP [NUT1] | 2.35 ± 0.055 |
| EDIVGALRRRVGPSEQN [REC8] | 1.58 ± 0.052 |
| EDNEMLEDLFSYRNGMA [YJR042W/NUP85] | 1.89 ± 0.086 |
| EDRPPEYWAQRKKKFVL [ISW2] | 3.13 ± 0.19 |
| EDVLVNQILMSVNFFVS [RPL1A] | 2.4 ± 0.045 |
| EDVVAISSRTYGQRAVL [RPS0B] | 3.03 ± 0.06 |
| EDYAIVTKGGTVENPLR [PRP28] | 2.98 ± 0.099 |
| EEAAGTKMFEDRREKAE [SMC2] | 3.36 ± 0.18 |
| EEAGEEEAKEEVTEEQA [RPS0A] | 3.5 ± 0.1 |
| EEEATMTTSAVSPTVGK [YIL149C/MLP2] | 3.3 ± 0.037 |
| EEESLHVFQYANRPRLV [RPC37] | 1.66 ± 0.081 |
| EEFAYVDPARRQILFKY [MED6] | 2.19 ± 0.061 |
| EEGEFIIDLYSLPEGLL [TAF14] | 3.54 ± 0.085 |
| EEITCALDYLIPPPMPK [MED7] | 2.73 ± 0.21 |
| EEKGWVPVTKLGRLVKA [RPS2] | 3.44 ± 0.13 |
| EELILPNTKDAMSLYHS [PRP8] | 3.38 ± 0.043 |
| EELLLKDLEIRKLEISS [GAL11] | 2.31 ± 0.11 |
| EENSQGNILDFNLNLPP [REC8] | 3.5 ± 0.14 |
| EEQEEEPDREKIKLLTQ [RPC19] | 3.24 ± 0.11 |
| EEQEKINSAPDFTQEDE [ISW2] | 3.56 ± 0.088 |
| EEQKIVKKVVKEQTEAA [RPL34A] | 3.23 ± 0.16 |
| EETDEVSSESSDEAIIP [SIR3] | 2.52 ± 0.056 |
| EETNVDIGVLEEYARRL [SMC4] | 3.36 ± 0.24 |
| EEVMRIALMGQDNKKIY [ESC2] | 2.72 ± 0.12 |
| EFDRRILKKSLMTSHTK [RTT102] | 2.98 ± 0.092 |
